The values that follow come from patent publication US20100204091.

The data set has as its target T1, SIVA2.
T1 chain: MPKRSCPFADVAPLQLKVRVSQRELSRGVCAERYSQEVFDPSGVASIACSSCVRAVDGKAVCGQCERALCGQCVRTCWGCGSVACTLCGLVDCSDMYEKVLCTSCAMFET

B1: NF-κB-inducing kinase, NIK, (MAP3K14) (protein)
chain: MAVMEMACPGAPGSAVGQQKELPKAKEKTPPLGKKQSSVYKLEAVEKSPVFCGKWEILNDVITKGTAKEGSEAGPAAISIIAQAECENSQEFSPTFSERIFIAGSKQYSQSESLDQIPNNVAHATEGKMARVCWKGKRRSKARKKRKKKSSKSLAHAGVALAKPLPRTPEQESCTIPVQEDESPLGAPYVRNTPQFTKPLKEPGLGQLCFKQLGEGLRPALPRSELHKLISPLQCLNHVWKLHHPQDGGPLPLPTHPFPYSRLPHPFPFHPLQPWKPHPLESFLGKLACVDSQKPLPDPHLSKLACVDSPKPLPGPHLEPSCLSRGAHEKFSVEEYLVHALQGSVSSGQAHSLTSLAKTWAARGSRSREPSPKTEDNEGVLLTEKLKPVDYEYREEVHWATHQLRLGRGSFGEVHRMEDKQTGFQCAVKKVRLEVFRAEELMACAGLTSPRIVPLYGAVREGPWVNIFMELLEGGSLGQLVKEQGCLPEDRALYYLGQALEGLEYLHSRRILHGDVKADNVLLSSDGSHAALCDFGHAVCLQPDGLGKSLLTGDYIPGTETHMAPEVVLGRSCDAKVDVWSSCCMMLHMLNGCHPWTQFFRGPLCLKIASEPPPVREIPPSCAPLTAQAIQEGLRKEPIHRVSAAELGGKVNRALQQVGGLKSPWRGEYKEPRHPPPNQANYHQTLHAQPRELSPRAPGPRPAEETTGRAPKLQPPLPPEPPEPNKSPPLTLSKEESGMWEPLPLSSLEPAPARNPSSPERKATVPEQELQQLEIELFLNSLSQPFSLEEQEQILSCLSIDSLSLSDDSEKNPSKASQSSRDTLSSGVHSWSSQAEARSSSWNMVLARGRPTDTPSYFNGVKVQIQSLNGEHLHIREFHRVKVGDIATGISSQIPAAAFSLVTKDGQPVRYDMEVPDSGIDLQCTLAPDGSFAWSWRVKHGQLENRP
Take B1: the “in vitro kinase assay (phosphorylation of SIVA2)” value is given as “NIK readily phosphorylated SIVA2”.
